From the nanobody polyreactivity screen of Harvey et al. (2022)

Test: yeast display, Sf9 membrane polyspecificity reagent, FACS + sequencing; frameworks hold sequencing errors
Method in brief: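 A nanobody's polyreactivity label depends on the gate it was sorted from. Yeast display cells were stained with 10% biotinylated, detergent-solubilized Sf9 membrane reagent for 1 hour at 4 °C, enriched on streptavidin microbeads and sorted by FACS. The low and high (top ~1%) gates were set on anti-HA fluorescence for expression and streptavidin fluorescence for reagent binding.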

Sequence	polyreactivity (PSR sort gate)
QVQLVESGGGLVQAGGSLRVSCAASGSTFQYNAMGWYRQAPGKERELVAVITRRGGRTYYADSVKGRFTISRDNAKNSVYLQLNSLKAEDTAVYYCAAYFDYTHRFYYWGQGTQVTVSS	high polyreactivity
QVQLVESGGGLVQAGGSLRVSCAASGSTFRRNNMGWYRQAPGKERELVAGISSSGGSTYYADSVKGRFTISRDNAKNTVYLQMNSLKPEDTAVYYCDARFYVSYVGYNYWGQGTQVTVSS	high polyreactivity
QVQLVESGGGLVQAGGSLRVSCAASGSTFWSYAMGGYRQAPGKARELVAGITQSGGSTYYADSVKGRFTISRDTAKHTLYLQMNSLQPEDTAVYDCAKDGRVSGDFDYWGQGTQGTVSS	low polyreactivity
QVQLVESGGGLVQAGGSLRVSCAASGYIFYGNTMGWYRQAPGKEWELVAAISYDGGSTYYADSVKGRFTISRDNAKNTVYLQMNSLKPEDTAVYYCAADTFSFRWSDYWGQGTQVTVSS	low polyreactivity
QVQLVESGGGLVQAGGSLRVSCAASGYTIKYYAMGWYRQAPGKERELVAAISKDGGSTYYADSVKGRFTISRDNAKNTVYLQMNSLKPEDTAVYYCAAKSNVRYGWREFYWGQGTQVTVSS	high polyreactivity
QVQLVESGGGLVQAGGSLRVSCAAYGRIFLANAMGGYRTAAGKERELVAAISYSGGSTYYADSVKGRFTISRDNAKNTVYLQMNSLKPEDTAVYYCAADAFTWYTGRAWKYYYWGHGTQVTVSS	low polyreactivity
QVQLVESGGGLVQAGGSLRVSCADSGGIFALNDMGWYRQAPGKERELVAAINGAGTYYADSVKGRFTISRDNAKNTVYLQRNSLKPEDTAVYYCARGSLHWEYARTWTRVEYDYWGQGTQVTVSS	low polyreactivity
QVQLVESGGGLVQAGGSLRVSCAPSGGTFGYYTMGWYRQAPGTERELVAAISSGGGTDYADSVKGRFTISRDNAKNTVYLQMNSLKPEDTAVYYCNAKWLELHYVFLPSYTMDYWGHGTQVTVSS	low polyreactivity
QVQLVESGGGLVQAGGSLRVSCAPSGRTFRYNTMGWYRPAPGKERELVARITWSGGSTYYADSVKGRFTISRDNAKNTVYLQMNSLKPEDTAVSYCAAGSGWRFDYWGQGTQVTVSS	low polyreactivity
QVQLVESGGGLVQAGGSLRVSCASSGFTFVYYAMVWYRQAPGKERELVATISGNGGRTYYADSVKGRFTISRDNAKNTVYLLMHSLKPEDTAVYYSAALLYIRSVGDDYWGQGTKVTVSS	low polyreactivity
QVQLVESGGGLVQAGGSLSLICAASGFIFYYYAMGWYRQAPGKERELVAGMSRRGGSTYYADSVKGRFTISRDNAKNTVYLQMNSLKPEDTAVYYCAALGDDATSYGYWGQGTQVTVSS	high polyreactivity
QVQLVESGGGLVQAGGSLSLICAASGRFSNAMGWYIQAPGKERELVAAITLSGTSTYYADSVKGRFTISRDNAKNTVYLQMNSLKTEDTAVYYCAAGSGYGVTWVYSPYTGVDYWGQGTQVTVSS	low polyreactivity
QVQLVESGGGLVQAGGSLSLICAASGSIFYEYAMGWYRQAPGKEREFVAAISSSGGSTYYADSVKGRFTISRDNAKNTVYLQMNSLKPEYTAVYYCNAQVGGVSIEYDYWGQGTQVTVSS	low polyreactivity
QVQLVESGGGLVQAGGSLSLSCAASGFIFNYYVMGWYRQAPGKERELVATISWRGGRTYYADSVKGRFTISRDNAKNTVYLQMNSLKPEDTAVYYCAKDSYYFTRYDYWGQGTQVTVSS	low polyreactivity
QVQLVESGGGLVQAGGSLSLSCAASGFIFPGNAKGWYRQAPGKERELVATISSGGSTKYADSVKGRFTISRDNANNTVYLQMNSLKPEDTAVYYCAARVYLGVFDYYYWGQGTQVTVSS	low polyreactivity
QVQLVESGGGLVQAGGSLSLSCAASGFIFYGYAMGWYRQAPGKEREIVAAISGRGDRTYYADSVKGRFTISRDNAKNTVYLQMNSLNPEDTAVYYCAALQLRYSGALWYDYWGQGTQVTVSS	high polyreactivity
QVQLVESGGGLVQAGGSLSLSCAASGFILDYNTKGWYRQAPGKEREVVAAISSSGDTTYYADSVKGRFTISRDNAKYTVYLQMNSLKPEDTAVYYCAREYGDGYEYWVQGTQVTVSS	low polyreactivity
QVQLVESGGGLVQAGGSLSLSCAASGFTFAKYAMGWYRQAPGKERELVATISWSGGTTSYADSVKGRFTISRDNAKNTVYLQMNSLKPEDTAVYYCAALRYADYDYWGQGTQVTVSS	high polyreactivity
QVQLVESGGGLVQAGGSLSLSCAASGFTFGTNAMGWYRQAPGKERELVAAISSRGGSTYYADSVKGRFTISRDNAKNTVYLEMNSLKPEDTAVYYCARRVAGRQHEYGYWGLGTQVTVSS	high polyreactivity
QVQLVESGGGLVQAGGSLSLSCAASGFTFSRYAMGWYRQAPGKERELVAAISDDGGSTYYADSVKGRFTISRDNAKNTVYLQMNSLKPEDTAVYYCAARFYWSYGYWGQGTQVTVSS	high polyreactivity
QVQLVESGGGLVQAGGSLSLSCAASGGTFSRYGMGWYRQAPGKEREMVAAISRSGGSTYYADSVKWRFTISRDNAKNTVYLQMNSLKPEDTAVYYCAAKLPIPYTTGRYAAMDYWGQGTQVTVSS	high polyreactivity
QVQLVESGGGLVQAGGSLSLSCAASGGTFTFYAMGWYRQAPGKERELVATINWSGGSTYYADSVKGRFTISRDNAKNTVYIQMNCLKPEDSAVYYCNAAWAYKSVEYWGQGTQVTVSS	low polyreactivity

Sequence	polyreactivity (PSR sort gate)
QVQLVESGGGLVQAGGSLSLSCAASGIIFIYYGMGWYRQAPGKERELVAAISRSGGRTYYADSVKGRFTISRDNAKNTVYLQMNSLKPEDTAVYYCATTYTPTGFDYWGQGTQVTVSS	high polyreactivity
QVQLVESGGGLVQAGGSLSLSCAASGIIFYDYAMGWYRQAPGKERELVAAITSGGSTNYADSVKGRFTISRDNAKNTVYLLMNRLKPEVTAVYYCAATYWSWISLRFYWGLGTQVTVSS	low polyreactivity
QVQLVESGGGLVQAGGSLSLSCAASGIIFYYYAMGWYRQAPGKERELVAAISTSGGRTYYADSVKGRFTISRDNAKNTVYLQMNSMKPEDTAVYYCAADYLKGEEDYWGQGTQVTVSS	low polyreactivity
QVQLVESGGGLVQAGGSLSLSCAASGIIIRRYAMGWYRQAPRKERELVATITWSGGSTYYADSVKGRFTISRDNAKNTVYLQMNSLKPEDTAVDYCAKLTSYRGRYNYWGQGTQVTVSS	high polyreactivity
QVQLVESGGGLVQAGGSLSLSCAASGIISTYYVMGWYRQAPGKERELVAAITGGDSSTYYADSVKGRFTISRDNAKNTVYLQMNSLKPEDTAVYYCAKEYYYARGARYDYWGQGTQVTVSS	low polyreactivity
QVQLVESGGGLVQAGGSLSLSCAASGNIVPSYVMGWYRQAPGKERELVAAITWNGGSTYYADSVKGRFTISRDNAKNTVYLQMNSLKPEDTAVYDCATSGPRLLRYYSSSSPSYDYWGQGTQVTVSS	low polyreactivity
QVQLVESGGGLVQAGGSLSLSCAASGRIFATNAMGWYRQAPGKERELVATITRSDGRTYYAVSVKGRFTISRDNAMNSVYLEMNSLKPEDTAVYFCAAYYSDTEPGYREYDYWGQGTQVTLSS	low polyreactivity
QVQLVESGGGLVQAGGSLSLSCAASGRIFRYNAMGWYRQAPGKERELVAGINGRSGSTTYADSVKGRFTISRDNAKNTVYLQMNSLKPEDTAVYYCAIVYGGYHYAFRSSRGMGYWGQGTQVTVSS	high polyreactivity
QVQLVESGGGLVQAGGSLSLSCAASGRLFARNTMGWYRQAPGKEREFVAAIDRRGGSTYYADSVKGRFTISRDNAKNTVYLQMNSLKPEDTAVYYCNKDTRRSGRMDSWGQGTEVTVSS	low polyreactivity
QVQLVESGGGLVQAGGSLSLSCAASGRNFYANTMGWYRQAPGKERELVASISYSSGSTYADSVKGRFTISRDNAKNTVYLQMNSLKPEDTAVYYCAARTYWYPRRPIYDYWGQGTQVTVSS	high polyreactivity
QVQLVESGGGLVQAGGSLSLSCAASGRTFGPYAMGWYRKAPGKERELVAVISGRGTSTYYADSVKGRFTISRDNAKNTVYLQMNSLKPEDTAVYYCNADYGSWYWGFDYWGQGTQVTVSS	low polyreactivity
QVQLVESGGGLVQAGGSLSLSCAASGRTFSSYVMGWYRPAPGNERELVAAITQSSSRTYYADSVKGRFTISRDNAKNTVYLQMNSLKRVYTAVYYCNAALYPYLQYYYWGLGTQVTVSS	low polyreactivity
QVQLVESGGGLVQAGGSLSLSCAASGRTLIRNAMGWYRQAPGKGRELVAAINSGGITNYADSVKGRFTISRDNAKNTVYLQMNSLKPEDTAVYYCNDRQVLYGLYLRAYPYEYWGQGTQVTVSS	low polyreactivity
QVQLVESGGGLVQAGGSLSLSCAASGSIFWSYAMGWYRQAPGKERELVAAITTDGGTNYADSVKGRFTISRDNAKNTVYLQMNSLKPVDTAVYYCAADTDPKPRIDYTLRMDYWGHGTQVTVSS	low polyreactivity
QVQLVESGGGLVQAGGSLSLSCAASGSIFYHNAMGWYRQAPGKERELVAAITGSGGSTYYADSVKGRFTISRDNAKNTVYLQMNSLKPEDTAVYYCAAVQLYQKHQITYVAHEYWGQGTQVTVSS	low polyreactivity
QVQLVESGGGLVQAGGSLSLSCAASGSIFYSNSMGWYRQAPGKERELVAAINWRGGSTYYADSVKGRFTISRDNAKNSVYLQMNSLKPEDTAVDYCAAVYPVHLRGQYPIPKYNYWGQGTQVTVSS	low polyreactivity
QVQLVESGGGLVQAGGSLSLSCAASGSIFYVYAMGWYRQAPGKERELVASINKSGGSTYYADSVKGRFTISRDNAKNTVYLQMNSLKPEDTAVYYCAARYGWPRVGFQYPAHVGFDYWGQGTQVTVSS	low polyreactivity
QVQLVESGGGLVQAGGSLSLSCAASGSSFSLYTMGWYRQAPGKERDLVASISQSGGSTYYADSVKGRFTISRDNAKNTVYLQMNSLKPEDTAVYFWNAKGRSGTLTLYYYWGQGTQVTVSS	low polyreactivity
QVQLVESGGGLVQAGGSLSLSCAASGSTFAFNAMGWYRQAPGKERELVAAIYSDGSTDYADSVKGRFTISRDNAKNTVYLQMNSLKPEDTAVYYCAADWGWRYVLPVGWFRYGYWGQGTQVTVSS	low polyreactivity
QVQLVESGGGLVQAGGSLSLSCAASGSTFDYYAMGWYRQAPGKERELVADITYSGGSTYYADSVKGRFTISRDNAKNTVYLQMNSLKPEDTAVYYCNAYYTVYTRYDYWGQGTQVTVSS	high polyreactivity
QVQLVESGGGLVQAGGSLSLSCAASGSTFLKYTMGWYRQAPWKERELVAAISKSGGSTYYADSVKGRFTISRDNAKNTVYLQMNSLKPEDTAVYYCAKGRYWVYSYGYGYWGQGTQVTVSS	high polyreactivity
